Experimental data reported in US20190025332A1 (Novo Nordisk, published 2019).

T1: wild type human MIC-1 (human, UniProt Q99988 197-308)
T1 construct: also called wtMIC-1; hMIC-1
T1 sequence: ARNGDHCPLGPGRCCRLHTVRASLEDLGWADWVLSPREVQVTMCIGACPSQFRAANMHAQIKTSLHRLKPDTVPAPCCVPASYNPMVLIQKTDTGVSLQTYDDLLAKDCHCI


Assays:
hRET(ECR)-hIgG1.1_Fc [1] = molecular target: T2, hRET(ECR)-hIgG1.1_Fc (human); assay: SPR; analyte 12 nM over immobilised hRet(ECR)-Fc
T2 construct: also called hRET(ECR)-Fc; hRet(ECR)-Fc
Description: (§1) hRet and complex of hGFRAL and MIC-1 interactions were assessed by SPR-based binding assay. A Biacore® 4000 (GE Healthcare, Piscataway, N.J., USA) instrument was used. The assays were performed at 25° C. at flow rates of 30 μL/minute in 1× HBS-P running buffer (BR-1006-71, GE Healthcare, Piscataway, N.J., USA). hRet(ECR)-Fc was immobilized through Fc as ligand on the chip. VISTA-Fc was immobilized as negative control ligand. The complex of MIC-1 and hGFRAL was prepared by pre-incubating wtMIC-1 with hGFRAL(ECR)-His. wtMIC-1, hGFRAL(ECR)-His, complex of wtMIC-1 and Ctrl-His, and complex of wtMIC-1 and hGFRAL(ECR)-His at various concentration were run as flow-through analyte.
(§2) Thus, it can be concluded that that hRet binds to hGFRAL in the presence of MIC-1; and Ret, MIC-1 and GFRAL forms a ternary complex.

hRET(ECR)-hIgG1.1_Fc [2] = molecular target: T2, hRET(ECR)-hIgG1.1_Fc; assay: SPR; analyte 1000 nM over immobilised hRet(ECR)-Fc
Description: as §1, §2

VISTA-Fc [3] = molecular target: T3, VISTA-Fc; assay: SPR; analyte 333 nM over immobilised VISTA-Fc (Ctrl-Fc)
T3 construct: Negative control ligand immobilised on the chip; also called Ctrl-Fc
Description: as §1, §2

hRET(ECR)-hIgG1.1_Fc [4] = molecular target: T2, hRET(ECR)-hIgG1.1_Fc; assay: SPR; analyte 111 nM over immobilised hRet(ECR)-Fc
Description: as §1, §2

hRET(ECR)-hIgG1.1_Fc [5] = molecular target: T2, hRET(ECR)-hIgG1.1_Fc; assay: SPR; analyte 333 nM over immobilised hRet(ECR)-Fc
Description: as §1, §2

VISTA-Fc [6] = molecular target: T3, VISTA-Fc; assay: SPR; analyte 0 nM over immobilised VISTA-Fc (Ctrl-Fc)
Description: as §1, §2

VISTA-Fc [7] = molecular target: T3, VISTA-Fc; assay: SPR; analyte 111 nM over immobilised VISTA-Fc (Ctrl-Fc)
Description: as §1, §2

VISTA-Fc [8] = molecular target: T3, VISTA-Fc; assay: SPR; analyte 12 nM over immobilised VISTA-Fc (Ctrl-Fc)
Description: as §1

VISTA-Fc [9] = molecular target: T3, VISTA-Fc; assay: SPR; analyte 37 nM over immobilised VISTA-Fc (Ctrl-Fc)
Description: as §1, §2

VISTA-Fc [10] = molecular target: T3, VISTA-Fc; assay: SPR; analyte 1000 nM over immobilised VISTA-Fc (Ctrl-Fc)
Description: as §1, §2

hRET(ECR)-hIgG1.1_Fc [11] = molecular target: T2, hRET(ECR)-hIgG1.1_Fc; assay: SPR; analyte 0 nM over immobilised hRet(ECR)-Fc
Description: as §1, §2

hRET(ECR)-hIgG1.1_Fc [12] = molecular target: T2, hRET(ECR)-hIgG1.1_Fc; assay: SPR; analyte 37 nM over immobilised hRet(ECR)-Fc
Description: as §1, §2

wild type human MIC-1 = molecular target: T1, wild type human MIC-1; assay: SPR; GFRAL fragment as analyte over immobilised wtMIC-1; relative to hGFRAL(ECR) set as 100%
Description: MIC-1 interactions with soluble GFRAL fragments were assessed by SPR-based binding assay. A Biacore® 4000 (GE Healthcare, Piscataway, N.J., USA) instrument was used for SPR-based binding assay. The assays were performed at 25° C. at flow rates of 30 μL/minute in 1× HBS-P running buffer (BR-1006-71, GE Healthcare, Piscataway, N.J., USA). Purified GFRAL fragments at various concentrations were run as flow-through analyte and wtMIC-1 was immobilized as ligand. Please see FIG. 6 and Table 5.

T2 sequence (chain, as listed by the source limits assumed): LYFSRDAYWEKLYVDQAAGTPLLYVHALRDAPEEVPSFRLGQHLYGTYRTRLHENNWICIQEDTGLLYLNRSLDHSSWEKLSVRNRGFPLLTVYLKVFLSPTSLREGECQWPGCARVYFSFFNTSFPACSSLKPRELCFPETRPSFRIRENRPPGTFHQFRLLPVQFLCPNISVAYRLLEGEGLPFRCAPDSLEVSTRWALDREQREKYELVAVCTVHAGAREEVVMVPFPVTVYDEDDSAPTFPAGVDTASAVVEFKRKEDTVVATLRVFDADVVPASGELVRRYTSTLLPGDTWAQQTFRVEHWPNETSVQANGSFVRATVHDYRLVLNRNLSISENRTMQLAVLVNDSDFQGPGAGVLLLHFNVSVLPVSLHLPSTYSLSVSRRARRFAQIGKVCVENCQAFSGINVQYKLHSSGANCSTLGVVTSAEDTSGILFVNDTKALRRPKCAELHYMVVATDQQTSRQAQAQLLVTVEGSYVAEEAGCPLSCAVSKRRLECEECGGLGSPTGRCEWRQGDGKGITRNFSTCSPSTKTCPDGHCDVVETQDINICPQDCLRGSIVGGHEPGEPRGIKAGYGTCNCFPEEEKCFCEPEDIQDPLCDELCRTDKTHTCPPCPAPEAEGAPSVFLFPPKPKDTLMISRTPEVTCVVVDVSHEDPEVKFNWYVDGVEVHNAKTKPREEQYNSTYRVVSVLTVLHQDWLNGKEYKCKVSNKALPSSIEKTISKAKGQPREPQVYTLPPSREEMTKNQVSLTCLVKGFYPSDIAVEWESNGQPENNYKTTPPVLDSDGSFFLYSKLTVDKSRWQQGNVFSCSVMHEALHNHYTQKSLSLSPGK

Row | Binder | Response (RU) (hRET(ECR)-hIgG1.1_Fc [1]) | Response (RU) (hRET(ECR)-hIgG1.1_Fc [2]) | Response (RU) (VISTA-Fc [3]) | Response (RU) (hRET(ECR)-hIgG1.1_Fc [4]) | Response (RU) (hRET(ECR)-hIgG1.1_Fc [5]) | Response (RU) (VISTA-Fc [6]) | Response (RU) (VISTA-Fc [7]) | Response (RU) (VISTA-Fc [8]) | Response (RU) (VISTA-Fc [9]) | Response (RU) (VISTA-Fc [10]) | Response (RU) (hRET(ECR)-hIgG1.1_Fc [11]) | Response (RU) (hRET(ECR)-hIgG1.1_Fc [12]) | % of Binding (wild type human MIC-1) [%]
1 | hGFRAL(ECR)-His (receptor, not shown: small tags and cut ends) SQTNNCTYLREQCLRDANGCKHAWRVMEDACNDSDPGDPCKMRNSSYCNLSIQYLVESNFQFKECLCTDDFYCTVNKLLGKKCINKSDNVKEDKFKWNLTTRSHHGFKGMWSCLEVAEACVGDVVCNAQLASYLKACSANGNPCDLKQCQAAIRFFYQNIPFNIAQMLAFCDCAQSDIPCQQSKEALHSKTCAVNMVPPPTCLSVIRSCQNDELCRRHYRTFQSKCWQRVTRKCHEDENCISTLSKQDLTCSGSDDCKAAYIDILGTVLQVQCTCRTITQSEESLCKIFQHMLHRKSCFNYPTLSNVKGMALYTRKHANKITLTGFHSPFNGE | -0.0397 | -1.11 | -3.48 | 0.208 | -0.497 | 0 | -2.94 | -2.34 | -2.04 | -3.85 | 0 | -0.105 | –
2 | complex of wtMIC-1 and hGFRAL(ECR)-His (other, Prepared by pre-incubating wtMIC-1 with hGFRAL(ECR)-His; also called wtMIC-1 + hGFRAL(ECR)-His; complex of MIC-1 and hGFRAL; not shown: His tag, not described) chain 1: ARNGDHCPLGPGRCCRLHTVRASLEDLGWADWVLSPREVQVTMCIGACPSQFRAANMHAQIKTSLHRLKPDTVPAPCCVPASYNPMVLIQKTDTGVSLQTYDDLLAKDCHCI chain 2: SQTNNCTYLREQCLRDANGCKHAWRVMEDACNDSDPGDPCKMRNSSYCNLSIQYLVESNFQFKECLCTDDFYCTVNKLLGKKCINKSDNVKEDKFKWNLTTRSHHGFKGMWSCLEVAEACVGDVVCNAQLASYLKACSANGNPCDLKQCQAAIRFFYQNIPFNIAQMLAFCDCAQSDIPCQQSKEALHSKTCAVNMVPPPTCLSVIRSCQNDELCRRHYRTFQSKCWQRVTRKCHEDENCISTLSKQDLTCSGSDDCKAAYIDILGTVLQVQCTCRTITQSEESLCKIFQHMLHRKSCFNYPTLSNVKGMALYTRKHANKITLTGFHSPFNGE | 0.226 | 10.7 | -1.43 | 5.48 | 8.32 | 0 | -1.02 | -1.39 | -1.48 | -1.4 | 0 | 1.97 | –
3 | hGFRAL_C2_Fab_HPC4 (receptor, C2 = amino acid 131-219 of UniProt Q6UXV0) CLEVAEACVGDVVCNAQLASYLKACSANGNPCDLKQCQAAIRFFYQNIPFNIAQMLAFCDCAQSDIPCQQSKEALHSKTCAVNMVPPPTGGGGSGGGGSDVVMTQTPLSLPVSLGDQASISCRSSQSLLHSNGNTYLHWYLQKPGQSPKLLIYKVSNRFSGVPDRFSGSGSGTDFTLKISRVEAEDLGVYFCSQSTHVPWTFGGGTKLEIKRADAAPTVSIFPPSSEQLTSGGASVVCFLNNFYPKDINVKWKIDGSERQNGVLNSWTDQDSKDSTYSMSSTLTLTKDEYERHNSYTCEATHKTSTSPIVKSFNRNEC heavy: EVQIQESGPSLVKPSQTLSLTCSVSGDSITSGYWNWIRKFPGHKIEYMGTISYSGDTYYNPSLKSRISITRDTSKNQYYLHLNSVTTEDTATYYCARYGSYVFDYWGQGTTLTVSSAKTTPPSVYPLAPGSAAQTNSMVTLGCLVKGYFPEPVTVTWNSGSLSSGVHTFPAVLQSDLYTLSSSVTVPSSTWPSETVTCNVAHPASSTKVDKKIVPRDCGGGGSEDQVDPRLIDGK | – | – | – | – | – | – | – | – | – | – | – | – | 21
4 | hGFRAL_C2C3_Fab_HPC4 (receptor) CLEVAEACVGDVVCNAQLASYLKACSANGNPCDLKQCQAAIRFFYQNIPFNIAQMLAFCDCAQSDIPCQQSKEALHSKTCAVNMVPPPTCLSVIRSCQNDELCRRHYRTFQSKCWQRVTRKCHEDENCISTLSKQDLTCSGSDDCKAAYIDILGTVLQVQCTCRTITQSEESLCKIFQHMLHRKSCFNYPTLSNVKGMALYTRKHANKITLTGFHSPFNGEGGGGSGGGGSDVVMTQTPLSLPVSLGDQASISCRSSQSLLHSNGNTYLHWYLQKPGQSPKLLIYKVSNRFSGVPDRFSGSGSGTDFTLKISRVEAEDLGVYFCSQSTHVPWTFGGGTKLEIKRADAAPTVSIFPPSSEQLTSGGASVVCFLNNFYPKDINVKWKIDGSERQNGVLNSWTDQDSKDSTYSMSSTLTLTKDEYERHNSYTCEATHKTSTSPIVKSFNRNEC heavy: EVQIQESGPSLVKPSQTLSLTCSVSGDSITSGYWNWIRKFPGHKIEYMGTISYSGDTYYNPSLKSRISITRDTSKNQYYLHLNSVTTEDTATYYCARYGSYVFDYWGQGTTLTVSSAKTTPPSVYPLAPGSAAQTNSMVTLGCLVKGYFPEPVTVTWNSGSLSSGVHTFPAVLQSDLYTLSSSVTVPSSTWPSETVTCNVAHPASSTKVDKKIVPRDCGGGGSEDQVDPRLIDGK | – | – | – | – | – | – | – | – | – | – | – | – | 8
5 | hGFRAL_C1C2_Fab_HPC4 (receptor) QTNNCTYLREQCLRDANGCKHAWRVMEDACNDSDPGDPCKMRNSSYCNLSIQYLVESNFQFKECLCTDDFYCTVNKLLGKKCINKSDNVKEDKFKWNLTTRSHHGFKGMWSCLEVAEACVGDVVCNAQLASYLKACSANGNPCDLKQCQAAIRFFYQNIPFNIAQMLAFCDCAQSDIPCQQSKEALHSKTCAVNMVPPPTGGGGSGGGGSDVVMTQTPLSLPVSLGDQASISCRSSQSLLHSNGNTYLHWYLQKPGQSPKLLIYKVSNRFSGVPDRFSGSGSGTDFTLKISRVEAEDLGVYFCSQSTHVPWTFGGGTKLEIKRADAAPTVSIFPPSSEQLTSGGASVVCFLNNFYPKDINVKWKIDGSERQNGVLNSWTDQDSKDSTYSMSSTLTLTKDEYERHNSYTCEATHKTSTSPIVKSFNRNEC heavy: EVQIQESGPSLVKPSQTLSLTCSVSGDSITSGYWNWIRKFPGHKIEYMGTISYSGDTYYNPSLKSRISITRDTSKNQYYLHLNSVTTEDTATYYCARYGSYVFDYWGQGTTLTVSSAKTTPPSVYPLAPGSAAQTNSMVTLGCLVKGYFPEPVTVTWNSGSLSSGVHTFPAVLQSDLYTLSSSVTVPSSTWPSETVTCNVAHPASSTKVDKKIVPRDCGGGGSEDQVDPRLIDGK | – | – | – | – | – | – | – | – | – | – | – | – | 87
